Measurements published in US20030125257A1, “Assay for identifying beta secretase inhibitors” (priority 2001, published 2003).
Square brackets hold non-standard residues; d marks the D form. Ends that are not written are not given here. Sta = CC(C)C[C@H](N)[C@@H](O)CC(=O)O

Target: T1, purified BACE (Homo sapiens, UniProt P56817)
T1 construct: Pooled fractions containing full-length BACE were passed over a 5 ml HiTrap Q column; 6xHis (C); made in house; host or cells: Sf9 insect cells (recombinant baculovirus, pFASTBAC1)
T1 sequence (P56817 46-501): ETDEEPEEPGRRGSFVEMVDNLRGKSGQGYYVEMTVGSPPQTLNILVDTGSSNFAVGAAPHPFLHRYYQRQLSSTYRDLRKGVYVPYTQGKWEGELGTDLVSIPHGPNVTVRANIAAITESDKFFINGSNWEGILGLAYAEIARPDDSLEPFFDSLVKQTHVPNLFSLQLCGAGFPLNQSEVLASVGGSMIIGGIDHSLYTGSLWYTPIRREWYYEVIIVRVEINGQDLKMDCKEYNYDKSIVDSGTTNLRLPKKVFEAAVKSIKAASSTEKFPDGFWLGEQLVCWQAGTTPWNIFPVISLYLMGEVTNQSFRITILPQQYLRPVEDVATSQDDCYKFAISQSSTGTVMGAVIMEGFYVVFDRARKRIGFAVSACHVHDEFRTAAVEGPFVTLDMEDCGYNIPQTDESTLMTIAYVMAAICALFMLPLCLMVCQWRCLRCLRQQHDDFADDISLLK
Experiment: Competitive radioligand binding assay (RLBA)
Settings: binding to purified BACE as in example 6, FIG. 4
Protocol: 96 well microplates (Optiplate Packard) are coated with purified BACE protein using a concentration of 1 μg/ml in 30 mM sodium citrate buffer adjusted to pH 5.5. The coating is achieved by incubation of 100 μl/well for 1-3 days at 4° C. The plate is then washed with 2×300 μl/well of 10 mM citrate pH 4.1. To each well 100 μl binding buffer (30 mM citrate, 100 mM NaCl, 0.1% BSA, pH 4.1) is dispensed. The test compound (peptide H-4848 in FIGS. 4A and B) is added in 5 μl from a DMSO stock solution or appropriate dilutions. To this the tracer (tritiated Compound A) is added in 10 μl/well from a 10 μCi/ml stock solution in binding buffer. After incubation for 1.5-2 hours in a humid chamber at ambient temperature the plate is washed with 2×300 μl/well water and flipped on a dry towel. Following the addition of 50 μl/well MicroScint20 (Packard) the plate is sealed and vibrated for 5 seconds. The bound radioactivity is counted on a Topcount (Packard). Total binding is typically between 2000 and 10000 cpm/well depending mainly on the purity and concentration of the BACE protein. Non-specific binding as assessed by competition with >1 μM peptide H-4848 (Bachem #H-4848) is typically between 30 and 300 cpm/well. The IC-50 values are calculated by Microsoft Excel FIT.

With “tritiated compound A: Compound A with iodine exchanged for 3H by reduction on palladium; tracer of the binding assay (EVN[Sta]VAE[Tyr(3H2)]-NH2)” the “equilibrium binding isotherm (Scatchart analysis)” value was “single binding site isotherm”.
